Data published in patent publication US20240141072A1 (published 2024).

B1: cynomolgus monkey DLL3 protein expressed as human IgG1-Fc fusion (Fc fusion, Macaca fascicularis)
chain: AGVFELQIHSFGPGPGGAPRSPYSARGPCRLFFRVCLKPGLSEEAAESPCALGAALSARGPVYTEQPEAPAPDLPLPNGLLQVPFRDAWPGTFSLIIETWREELGDQIGGPAWSLLARVTRRRRLAAGGPWAGDIQRAGAWELRFSYRARCELPAVGTACTRLCRPRSASRCGPGLRPCAPLEDECEAPPVCRAGCSLEHGFCEQPGECRCLEGWTGPLCMVPVSTSSCLGLRGPSSTTTGCLVPGPGPCDGNPCANGGSCSETPGSFECTCPRGFYGLRCEVSGVTCADGPCFNGGLCVGGADPDSAYICHCPPGFQGSNCEKRVDRCSLQPCRNGGLCLDLGHALRCRCRAGFAGPRCEHDLNDCAGRACANGGTCVEGGGAHRCSCALGFGGRDCRERADPCAARPCAHGGRCYAHFSGLVCACAPGYMGARCEFPVHPDGVSALPAAPPGLRPGDPQRYP
notes: also called cyDLL3; not shown: human IgG1 Fc
B2: human DLL3 protein expressed as human IgG1-Fc fusion (Fc fusion)
chain: AGVFELQIHSFGPGPGPGAPRSPCSARLPCRLFFRVCLKPGLSEEAAESPCALGAALSARGPVYTEQPGAPAPDLPLPDGLLQVPFRDAWPGTFSFIIETWREELGDQIGGPAWSLLARVAGRRRLAAGGPWARDIQRAGAWELRFSYRARCEPPAVGTACTRLCRPRSAPSRCGPGLRPCAPLEDECEAPLVCRAGCSPEHGFCEQPGECRCLEGWTGPLCTVPVSTSSCLSPRGPSSATTGCLVPGPGPCDGNPCANGGSCSETPRSFECTCPRGFYGLRCEVSGVTCADGPCFNGGLCVGGADPDSAYICHCPPGFQGSNCEKRVDRCSLQPCRNGGLCLDLGHALRCRCRAGFAGPRCEHDLDDCAGRACANGGTCVEGGGAHRCSCALGFGGRDCRERADPCAARPCAHGGRCYAHFSGLVCACAPGYMGARCEFPVHPDGASALPAAPPGLRPGDPQRYL
notes: also called huDLL3; not shown: human IgG1 Fc
B3: human DLL3 (Example 6) (ligand)
chain: B2 chain
notes: also called huDLL3
B4: biotinylated human DLL3 protein expressed as a human IgG1 fusion protein (Fc fusion, not shown: a dimerising Fc or GST)
chain: B2 chain
modifications: biotinylated
B5: cynomolgus DLL3 (ligand)
chain: B1 chain
notes: also called cyDLL3

Key:
[1] = molecular target: DH1 anti-DLL3 trispecific protein; experiment: Octet BLI, DLL3-Fc on anti-human Fc tips, single 50 nM
Experimental: (§1) Using conditioned media containing known concentrations of anti-DLL3 trispecific proteins, the binding affinities of the anti-DLL3 trispecific proteins toward human and cynomolgus monkey DLL3 proteins were measured, using a method where the DLL3 proteins were expressed as human IgG1-Fc fusions and the measurements were carried out using an Octet instrument with anti-human Fc tips.

[2] = molecular target: DH10 anti-DLL3 trispecific protein; experiment: as above
Experimental: as §1

[3] = molecular target: DH11 anti-DLL3 trispecific protein; experiment: as above
Experimental: as §1

[4] = molecular target: DH12 anti-DLL3 trispecific protein; experiment: as above
Experimental: as §1

[5] = molecular target: DH15 anti-DLL3 trispecific protein; experiment: as above
DH15 anti-DLL3 trispecific protein, sequence (chain, as listed by the source): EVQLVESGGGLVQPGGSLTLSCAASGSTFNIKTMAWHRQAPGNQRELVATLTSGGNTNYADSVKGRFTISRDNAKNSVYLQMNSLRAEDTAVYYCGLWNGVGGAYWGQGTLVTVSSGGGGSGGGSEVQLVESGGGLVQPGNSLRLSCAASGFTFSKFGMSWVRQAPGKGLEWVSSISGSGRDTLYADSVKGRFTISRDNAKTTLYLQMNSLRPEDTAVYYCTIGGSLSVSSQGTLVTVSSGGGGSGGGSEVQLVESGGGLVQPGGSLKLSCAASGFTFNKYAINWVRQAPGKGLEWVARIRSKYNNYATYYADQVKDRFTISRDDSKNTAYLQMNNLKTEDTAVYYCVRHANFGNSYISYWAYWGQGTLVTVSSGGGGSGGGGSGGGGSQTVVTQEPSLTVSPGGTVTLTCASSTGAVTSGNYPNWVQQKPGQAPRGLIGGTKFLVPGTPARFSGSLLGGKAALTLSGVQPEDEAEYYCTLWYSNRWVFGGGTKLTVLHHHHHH
Experimental: as §1

[6] = molecular target: DH17 anti-DLL3 trispecific protein; experiment: as above
Experimental: as §1

[7] = molecular target: DH18 anti-DLL3 trispecific protein; experiment: as above
Experimental: as §1

[8] = molecular target: DH2 anti-DLL3 trispecific protein; experiment: as above
Experimental: as §1

[9] = molecular target: DH22 anti-DLL3 trispecific protein; experiment: as above
Experimental: as §1

[10] = molecular target: DH23 anti-DLL3 trispecific protein; experiment: as above
Experimental: as §1

[11] = molecular target: DH27 anti-DLL3 trispecific protein; experiment: as above
Experimental: as §1

[12] = molecular target: DH29 anti-DLL3 trispecific protein; experiment: as above
DH29 anti-DLL3 trispecific protein, sequence (chain, as listed by the source): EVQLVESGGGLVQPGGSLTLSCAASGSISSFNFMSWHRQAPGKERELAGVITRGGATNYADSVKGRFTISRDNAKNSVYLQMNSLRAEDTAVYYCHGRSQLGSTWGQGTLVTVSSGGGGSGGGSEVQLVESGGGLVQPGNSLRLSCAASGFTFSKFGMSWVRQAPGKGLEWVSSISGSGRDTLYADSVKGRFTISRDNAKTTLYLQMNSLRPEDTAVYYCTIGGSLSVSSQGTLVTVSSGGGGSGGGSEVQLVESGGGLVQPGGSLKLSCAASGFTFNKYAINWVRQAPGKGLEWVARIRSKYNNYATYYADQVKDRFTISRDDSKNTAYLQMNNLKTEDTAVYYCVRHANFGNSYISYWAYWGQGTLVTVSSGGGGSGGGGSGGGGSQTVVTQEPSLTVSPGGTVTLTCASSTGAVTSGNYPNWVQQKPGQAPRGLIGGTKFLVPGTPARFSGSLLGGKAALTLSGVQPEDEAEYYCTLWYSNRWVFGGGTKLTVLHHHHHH
Experimental: as §1

[13] = molecular target: DH3 anti-DLL3 trispecific protein; experiment: as above
DH3 anti-DLL3 trispecific protein, sequence (chain, as listed by the source): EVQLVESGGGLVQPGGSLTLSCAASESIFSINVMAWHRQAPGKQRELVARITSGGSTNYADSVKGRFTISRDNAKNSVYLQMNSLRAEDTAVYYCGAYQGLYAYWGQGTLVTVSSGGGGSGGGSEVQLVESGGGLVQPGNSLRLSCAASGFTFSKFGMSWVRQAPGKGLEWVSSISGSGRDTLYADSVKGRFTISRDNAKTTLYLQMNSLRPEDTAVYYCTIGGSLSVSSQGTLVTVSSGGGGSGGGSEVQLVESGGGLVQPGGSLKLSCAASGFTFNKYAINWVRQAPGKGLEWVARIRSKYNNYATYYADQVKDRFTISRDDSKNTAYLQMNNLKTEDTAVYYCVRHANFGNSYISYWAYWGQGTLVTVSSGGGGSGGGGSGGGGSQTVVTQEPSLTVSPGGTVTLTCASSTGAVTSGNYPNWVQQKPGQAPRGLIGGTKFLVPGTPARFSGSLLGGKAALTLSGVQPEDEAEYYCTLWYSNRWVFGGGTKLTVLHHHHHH
Experimental: as §1

[14] = molecular target: DH38 anti-DLL3 trispecific protein; experiment: as above
Experimental: as §1

[15] = molecular target: DH42 anti-DLL3 trispecific protein; experiment: as above
DH42 anti-DLL3 trispecific protein, sequence (chain, as listed by the source): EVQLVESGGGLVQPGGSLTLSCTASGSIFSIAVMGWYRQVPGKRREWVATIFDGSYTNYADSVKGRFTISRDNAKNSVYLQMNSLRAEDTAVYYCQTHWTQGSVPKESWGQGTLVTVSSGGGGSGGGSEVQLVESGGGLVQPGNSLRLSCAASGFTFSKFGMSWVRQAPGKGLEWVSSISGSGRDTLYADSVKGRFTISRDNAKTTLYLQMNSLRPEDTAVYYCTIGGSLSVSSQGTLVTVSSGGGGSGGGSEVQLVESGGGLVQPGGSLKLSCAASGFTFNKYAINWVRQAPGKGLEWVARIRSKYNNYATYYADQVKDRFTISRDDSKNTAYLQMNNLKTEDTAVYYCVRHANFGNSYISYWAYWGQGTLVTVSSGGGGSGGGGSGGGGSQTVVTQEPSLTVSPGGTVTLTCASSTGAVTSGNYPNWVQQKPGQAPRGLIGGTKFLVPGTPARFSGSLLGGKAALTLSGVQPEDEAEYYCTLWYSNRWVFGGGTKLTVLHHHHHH
Experimental: as §1

[16] = molecular target: DH43 anti-DLL3 trispecific protein; experiment: as above
DH43 anti-DLL3 trispecific protein, sequence (chain, as listed by the source): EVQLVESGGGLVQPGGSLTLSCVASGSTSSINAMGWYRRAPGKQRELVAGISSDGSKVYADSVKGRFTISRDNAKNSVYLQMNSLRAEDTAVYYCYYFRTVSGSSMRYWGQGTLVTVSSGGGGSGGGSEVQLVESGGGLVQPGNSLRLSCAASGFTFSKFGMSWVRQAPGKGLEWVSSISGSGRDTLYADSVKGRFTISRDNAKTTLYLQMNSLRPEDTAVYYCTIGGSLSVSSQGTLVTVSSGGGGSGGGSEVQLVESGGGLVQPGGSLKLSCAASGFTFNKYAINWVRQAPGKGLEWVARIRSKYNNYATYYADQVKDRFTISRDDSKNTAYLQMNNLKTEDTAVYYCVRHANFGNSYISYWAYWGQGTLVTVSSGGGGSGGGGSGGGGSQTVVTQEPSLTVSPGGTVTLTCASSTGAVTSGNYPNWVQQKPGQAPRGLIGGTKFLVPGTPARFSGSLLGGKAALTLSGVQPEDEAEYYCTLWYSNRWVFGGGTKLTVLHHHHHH
Experimental: as §1

[17] = molecular target: DH45 anti-DLL3 trispecific protein; experiment: as above
DH45 anti-DLL3 trispecific protein, sequence (chain, as listed by the source): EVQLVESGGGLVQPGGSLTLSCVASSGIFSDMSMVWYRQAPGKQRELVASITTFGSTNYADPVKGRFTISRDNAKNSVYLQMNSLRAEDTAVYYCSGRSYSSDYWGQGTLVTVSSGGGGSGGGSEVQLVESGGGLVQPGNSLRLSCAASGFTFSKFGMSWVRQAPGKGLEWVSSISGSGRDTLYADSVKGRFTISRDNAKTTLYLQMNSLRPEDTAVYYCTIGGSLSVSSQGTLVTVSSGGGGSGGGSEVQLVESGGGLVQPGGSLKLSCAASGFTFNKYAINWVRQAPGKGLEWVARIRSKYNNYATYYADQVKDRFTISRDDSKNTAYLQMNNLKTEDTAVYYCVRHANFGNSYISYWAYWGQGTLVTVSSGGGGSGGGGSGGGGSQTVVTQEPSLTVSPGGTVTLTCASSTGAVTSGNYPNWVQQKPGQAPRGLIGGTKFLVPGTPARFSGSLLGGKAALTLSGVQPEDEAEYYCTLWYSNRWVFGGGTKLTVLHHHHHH
Experimental: as §1

[18] = molecular target: DH5 anti-DLL3 trispecific protein; experiment: as above
Experimental: as §1

[19] = molecular target: DH51 anti-DLL3 trispecific protein; experiment: as above
Experimental: as §1

[20] = molecular target: DH54 anti-DLL3 trispecific protein; experiment: as above
DH54 anti-DLL3 trispecific protein, sequence (chain, as listed by the source): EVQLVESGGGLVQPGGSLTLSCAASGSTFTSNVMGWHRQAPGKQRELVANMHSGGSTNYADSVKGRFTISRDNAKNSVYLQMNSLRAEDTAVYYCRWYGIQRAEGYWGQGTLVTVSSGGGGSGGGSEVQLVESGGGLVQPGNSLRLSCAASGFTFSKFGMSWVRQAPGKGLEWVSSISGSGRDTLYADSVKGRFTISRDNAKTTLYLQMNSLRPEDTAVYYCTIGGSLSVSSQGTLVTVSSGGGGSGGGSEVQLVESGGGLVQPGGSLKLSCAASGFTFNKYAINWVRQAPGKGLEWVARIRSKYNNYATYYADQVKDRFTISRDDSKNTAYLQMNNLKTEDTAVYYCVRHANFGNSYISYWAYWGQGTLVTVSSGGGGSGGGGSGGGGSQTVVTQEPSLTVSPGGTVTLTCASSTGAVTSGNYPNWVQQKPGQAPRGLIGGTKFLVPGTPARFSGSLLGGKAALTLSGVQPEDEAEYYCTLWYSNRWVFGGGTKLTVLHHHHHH
Experimental: as §1

[21] = molecular target: DH56 anti-DLL3 trispecific protein; experiment: as above
Experimental: as §1

[22] = molecular target: DH58 anti-DLL3 trispecific protein; experiment: as above
Experimental: as §1

[23] = molecular target: DH6 anti-DLL3 trispecific protein; experiment: as above
DH6 anti-DLL3 trispecific protein, sequence (chain, as listed by the source): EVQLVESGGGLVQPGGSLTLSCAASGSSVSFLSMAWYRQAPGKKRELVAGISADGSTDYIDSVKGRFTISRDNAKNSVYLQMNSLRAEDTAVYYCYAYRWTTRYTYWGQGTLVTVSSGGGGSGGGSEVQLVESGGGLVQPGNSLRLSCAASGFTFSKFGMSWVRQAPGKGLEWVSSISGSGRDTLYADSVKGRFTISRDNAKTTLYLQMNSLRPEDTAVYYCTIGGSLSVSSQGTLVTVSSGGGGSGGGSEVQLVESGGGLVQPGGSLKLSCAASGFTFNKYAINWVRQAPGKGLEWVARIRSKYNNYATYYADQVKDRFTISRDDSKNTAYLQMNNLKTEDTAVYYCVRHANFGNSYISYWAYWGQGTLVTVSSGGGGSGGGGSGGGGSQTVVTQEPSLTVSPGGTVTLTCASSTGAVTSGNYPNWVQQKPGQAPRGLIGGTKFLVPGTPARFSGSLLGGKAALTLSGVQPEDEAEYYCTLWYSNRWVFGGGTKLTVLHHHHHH
Experimental: as §1

[24] = molecular target: DH61 anti-DLL3 trispecific protein; experiment: as above
Experimental: as §1

[25] = molecular target: DH67 anti-DLL3 trispecific protein; experiment: as above
Experimental: as §1

[26] = molecular target: DH69 anti-DLL3 trispecific protein; experiment: as above
Experimental: as §1

[27] = molecular target: DH70 anti-DLL3 trispecific protein; experiment: as above
Experimental: as §1

[28] = molecular target: DH80 anti-DLL3 trispecific protein; experiment: as above
Experimental: as §1

[29] = molecular target: DH82 anti-DLL3 trispecific protein; experiment: as above
Experimental: as §1

[30] = molecular target: DH83 anti-DLL3 trispecific protein; experiment: as above
Experimental: as §1

[31] = molecular target: DH84 anti-DLL3 trispecific protein; experiment: as above
Experimental: as §1

[32] = molecular target: DH89 anti-DLL3 trispecific protein; experiment: as above
Experimental: as §1

[33] = molecular target: DH92 anti-DLL3 trispecific protein; experiment: as above
Experimental: as §1

[34] = molecular target: DH94 anti-DLL3 trispecific protein; experiment: as above
DH94 anti-DLL3 trispecific protein, sequence (chain, as listed by the source): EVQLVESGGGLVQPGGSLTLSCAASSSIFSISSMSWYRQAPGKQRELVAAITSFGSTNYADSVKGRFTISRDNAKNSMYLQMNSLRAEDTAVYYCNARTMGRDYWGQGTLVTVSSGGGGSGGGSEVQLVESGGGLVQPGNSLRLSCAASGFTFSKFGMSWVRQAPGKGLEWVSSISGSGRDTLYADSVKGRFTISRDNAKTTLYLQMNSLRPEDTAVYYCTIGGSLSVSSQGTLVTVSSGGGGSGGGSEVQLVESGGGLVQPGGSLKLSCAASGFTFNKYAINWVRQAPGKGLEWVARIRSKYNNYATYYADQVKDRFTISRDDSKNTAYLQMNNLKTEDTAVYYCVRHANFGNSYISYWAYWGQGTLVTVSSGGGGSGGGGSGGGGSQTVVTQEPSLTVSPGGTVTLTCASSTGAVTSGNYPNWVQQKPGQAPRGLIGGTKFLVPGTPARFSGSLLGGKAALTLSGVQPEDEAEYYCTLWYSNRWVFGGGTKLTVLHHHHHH
Experimental: as §1

[35] = molecular target: DH3 anti-DLL3 trispecific protein; experiment: Octet BLI, single 50 nM
Experimental: as §1

[36] = molecular target: T1, 52C4 anti-DLL3 trispecific protein (CHO expressed, purified) (biotinylated); experiment: Octet BLI, biotinylated trispecific on streptavidin tips
T1 construct: also called 52C04

[37] = molecular target: DH43 anti-DLL3 trispecific protein; experiment: Octet BLI, 60/20/6.67/2.22 nM
Experimental: (§2) Using the conditioned medium with known concentrations of the anti-DLL3 trispecific proteins, the binding affinities of the anti-DLL3 trispecific proteins toward human DLL3 protein were measured using a method where biotinylated version of human DLL3 protein were expressed as a human IgG1 fusion protein, and the binding affinity measurement was carried out in an Octet instrument with streptavidin tips.

[38] = molecular target: DH6 anti-DLL3 trispecific protein; experiment: Octet BLI, 60/20/6.67/2.22 nM
Experimental: as §2

[39] = molecular target: 53A05 anti-DLL3 trispecific protein; experiment: Octet BLI, streptavidin tips, single 50 nM
Experimental: as §2, with “proteins, the relative binding affinities” for “proteins, the binding affinities”

[40] = molecular target: 41D07 anti-DLL3 trispecific protein; experiment: Octet BLI, streptavidin tips, single 50 nM
Experimental: as §2, with “proteins, the relative binding affinities” for “proteins, the binding affinities”

[41] = molecular target: DH43 anti-DLL3 trispecific protein; experiment: Octet BLI, single 50 nM, four samples of conditioned medium
Experimental: as §2

[42] = molecular target: DH6 anti-DLL3 trispecific protein; experiment: as above
Experimental: as §2

[43] = molecular target: DH43 anti-DLL3 trispecific protein; experiment: Octet BLI, single 60 nM
[44] = molecular target: DH6 anti-DLL3 trispecific protein; experiment: Octet BLI, single 60 nM
[45] = molecular target: 51G10 anti-DLL3 trispecific protein (CHO expressed, purified) (biotinylated); experiment: Octet BLI, biotinylated trispecific on streptavidin tips
[46] = molecular target: T2, 51G2 anti-DLL3 trispecific protein (CHO expressed, purified) (biotinylated); experiment: as above
T2 construct: also called 51G02

Binder | Kd [1] | Kd [2] | Kd [3] | Kd [7] | Kd [8] | Kd [9] | Kd [11] | Kd [15] | Kd [16] | Kd [17] | Kd [18] | Kd [19] | Kd [20] | Kd [21] | Kd [22] | Kd [23] | Kd [24] | Kd [25] | Kd [26] | Kd [27] | further results
B1 | 10.7 nM | 25 nM | 5.6 nM | 5.9 nM | 14.6 nM | 16.4 nM | 11.3 nM | 11.7 nM | 5.5 nM | 2.8 nM | 5.5 nM | 18.2 nM | 42.4 nM | 8 nM | 27.9 nM | 6.8 nM | 30.8 nM | 8.2 nM | 7 nM | 86.2 nM | binding result [4]: no binding (tested: 50 nM); binding result [5]: no binding (tested: 50 nM); binding result [6]: no binding (tested: 50 nM); binding result [10]: no binding (tested: 50 nM); binding result [12]: no binding (tested: 50 nM); binding result [13]: no binding (tested: 50 nM); binding result [14]: no binding (tested: 50 nM); Kd [28]: 5.5 nM; binding result [29]: no binding (tested: 50 nM); binding result [30]: no binding (tested: 50 nM); Kd [31]: 17.9 nM; binding result [32]: no binding (tested: 50 nM); Kd [33]: 17.5 nM; Kd [34]: 9.6 nM
B2 | 3.5 nM | 3.9 nM | 5.3 nM | 1 nM | 6.5 nM | 6.8 nM | 2.1 nM | 4.3 nM | 4.3 nM | 1.9 nM | 0.5 nM | 5.1 nM | 20.6 nM | 8.1 nM | 3.3 nM | 6.1 nM | 10.6 nM | 8.4 nM | 1.2 nM | 16.2 nM | Kd [35]: 42 nM; Kd [4]: 1.3 nM; Kd [5]: 17.4 nM; Kd [6]: 7 nM; Kd [10]: 9.9 nM; Kd [12]: 5.6 nM; Kd [13]: 41.9 nM; Kd [14]: 11.9 nM; Kd [28]: 0.8 nM; Kd [29]: 6.6 nM; Kd [30]: 4.7 nM; Kd [31]: 15.2 nM; Kd [32]: 6.9 nM; Kd [33]: 18 nM; Kd [34]: 2.6 nM
B3 | – | – | – | – | – | – | – | – | – | – | – | – | – | – | – | – | – | – | – | – | Kd [36]: 2.2 nM
B4 | – | – | – | – | – | – | – | – | – | – | – | – | – | – | – | – | – | – | – | – | Kd [37]: 8.9 nM; Kd [38]: 9 nM; Kd [39]: 0.3 nM; Kd [40]: 34 nM; Kd [41]: 7.7 nM; Kd [42]: 9.9 nM
B5 | – | – | – | – | – | – | – | – | – | – | – | – | – | – | – | – | – | – | – | – | Kd [43]: 8.5 nM; Kd [44]: 10 nM; Kd [45]: 1.4 to 3.4 nM; Kd [46]: 1.4 to 3.4 nM
